This is an account of results in paper PMC4240730.

Assay [1] deals with basigin (immunoglobulin domains 1 and 2 of the short isoform, residues 22-205) (UniProt P35613). The experiment in a line: AUC.
A further assay has as its target basigin (Homo sapiens) (UniProt P35613). Conditions: cited from earlier work.
For assay [2], the target named is basigin (immunoglobulin domains 1 and 2 of the short isoform, residues 22-205) (UniProt P35613). Briefly: SPR. (In general: SPR reads the build-up and loss of mass on a sensor chip optically.)

By stoichiometry N is commonly meant a count of units in the complex or per binding partner. “PfRH5ΔN (residues K140-Q526) (from UniProt Q8IFM5 140-526) (domain or fragment)” registered a stoichiometry N in assay [1] of 1.

The Kd is a measure of binding affinity in units of concentration. As for PfRH5 (from UniProt Q8IFM5), in the assay with basigin (Homo sapiens), the Kd was 1.1 µM.

As for “PfRH5ΔNL (from UniProt Q8IFM5 140-526) (domain or fragment)”, in assay [2], the Kd came to 1.3 µM.
